B1: TOR1AIP2 (parent)
chain: HHVADAYTSSQKVSPIQIDGAGRT
B2: SNX8 (parent)
chain: VVLKLFLSFSGSDVQNKLKESAQC

Variants of: B1
Assay: protein stability index of a GFP-peptide fusion (GPS, HEK-293T) (PSI 1-6); higher = more stable
Conditions: c terminus: a fixed tail appended
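Further: lentivirally expressed fusions sorted by FACS into six bins by GFP to DsRed ratio, PSI derived from sequencing read proportions per bin multiplied by bin number.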

Protein stability index, by site and new letter:
D19: Q 3.75 | E 3.43 | V 3.28 | H 2.87 | F 2.77 | R 2.93 | A 3.01 | C 3.1 | I 2.54 | P 3.06 | W 1.94 | T 3.07 | N 3.34 | L 2.36 | M 2.7 | Y 2.47 | K 3.14 | G 3.4 | S 3.2
T8: Y 3.45 | A 4.09 | Q 3.85 | R 3.49 | M 3.89 | P 4.38 | L 4.14 | S 3.69 | C 2.78 | V 3.3 | E 4.38 | G 3.87 | N 3.88 | W 2.86 | H 4.14 | K 3.49 | F 3.27 | I 2.82 | D 4.66
Q11: L 3.27 | A 3.23 | T 3.6 | E 3.97 | G 3.66 | I 3 | V 2.89 | K 3.56 | Y 2.96 | D 4.26 | R 2.95 | M 3.15 | F 2.65 | N 3.29 | S 3.44 | H 3 | W 2.21 | C 3.06 | P 3.74
K12: I 3.13 | N 3.67 | H 3.54 | A 3.85 | F 2.47 | Y 3.02 | D 3.88 | S 3.77 | P 4.16 | T 3.59 | Q 3.86 | M 3.4 | V 3.47 | R 3.34 | W 2.72 | G 3.48 | E 3.84 | L 3.24 | C 3.06
I16: D 4.46 | M 3.38 | H 3.45 | F 3.49 | E 4.51 | R 3.94 | W 2.59 | S 3.78 | L 3.6 | Y 3.69 | N 3.88 | V 4.05 | Q 3.69 | K 4.04 | P 4.09 | G 3.78 | T 4.13 | A 3.72 | C 3.31
G20: T 3.48 | D 4.01 | V 3.33 | N 3.58 | Q 3.7 | E 3.36 | I 3.04 | R 3.38 | P 3.28 | C 3.19 | H 3.31 | M 3.44 | F 3.06 | A 3.53 | Y 2.83 | S 3.23 | W 2.33 | K 3.38 | L 2.78
I18: M 3.84 | Y 2.97 | F 2.9 | Q 3.75 | L 3.57 | E 3.73 | G 3.47 | R 3.58 | P 4.15 | A 4.03 | N 3.96 | W 3.26 | H 3.85 | V 3.76 | D 4.28 | S 3.72 | K 3.98 | C 3.61 | T 3.87
Y7: W 2.12
S9: K 4.43 | Y 3.78 | C 1.95 | H 3.77 | L 3.28 | M 3.52 | W 2.65 | Q 3.15 | F 2.9 | I 2.42 | E 3.11 | A 2.91 | P 2.58 | R 3.75 | T 2.82 | G 3.79 | D 4.04 | V 1.62 | N 3.54
Q17: C 3.26 | W 2.31 | I 3.05 | A 3.55 | Y 2.66 | F 3.05 | N 3.64 | D 3.67 | M 2.99 | P 3.93 | E 3.65 | R 3.72 | T 3.41 | V 3.49 | K 3.63 | L 3.57 | G 3.29 | H 3.17 | S 3.69
A21: K 3.42 | Y 3.22 | M 3.58 | C 3.48 | L 3.42 | W 2.67 | S 3.67 | Q 3.85 | H 3.7 | E 3.32 | T 3.85 | F 3.18 | P 3.48 | V 3.34 | R 3.55 | D 4.16 | N 3.44 | G 3.62 | I 3.34
G22: M 3.32 | F 2.7 | Y 2.82 | A 3.58 | I 3.26 | H 3.47 | T 3.09 | D 3.99 | K 3.72 | E 3.93 | L 2.92 | V 3.4 | P 3.61 | N 3.25 | Q 3.5 | W 2.46 | R 3.19 | C 3.6 | S 3.36
S14: H 3.44 | K 3.45 | C 3.22 | D 4.07 | W 2.77 | G 3.27 | R 3.26 | I 2.94 | T 3.22 | V 3.46 | Q 3.35 | Y 2.71 | L 3.42 | M 3.25 | N 4.01 | P 3.25 | E 4.13 | F 3.34 | A 3.9
P15: Y 2.55 | F 2.82 | L 3.45 | C 3.66 | I 2.77 | K 3.33 | T 3.28 | V 3.14 | Q 3.43 | A 3.66 | E 3.82 | M 3.25 | N 3.47 | D 3.81 | S 3.41 | G 4.04 | H 3.08 | R 3.26 | W 2.63
V13: L 3.56 | C 2.92 | F 3.21 | K 3.66 | E 3.96 | M 3.83 | Y 3.43 | W 3.16 | I 2.83 | G 3.7 | A 3.27 | S 3.79 | R 3.59 | N 4.32 | Q 3.85 | T 3.8 | P 3.82 | H 3.76 | D 4
T24: G 3.85 | H 3.38 | S 3.58 | F 2.81 | D 4.18 | E 4 | W 2.97 | R 3.68 | Q 3.3 | A 3.36 | N 3.97 | Y 2.93 | M 2.98 | C 3.43 | P 3.46 | I 3 | K 3.9 | V 3.51 | L 3.09
R23: G 3.68 | A 3.86 | T 3.47 | F 3.12 | S 3.83 | C 3.68 | L 3.36 | D 4.11 | Q 3.71 | Y 2.94 | E 3.91 | H 3.76 | V 3.29 | N 3.81 | K 3.28 | M 3.26 | P 3.01 | I 3.45 | W 3.1
S10: L 3.07 | T 3.28 | H 3.17 | K 3.46 | N 3.21 | G 3.81 | E 3.98 | C 2.96 | A 3 | Y 2.94 | V 2.9 | Q 3.24 | W 2.37 | D 4.33 | R 2.64 | F 2.95 | I 2.72 | P 3.87 | M 2.93

Variants of: B2
Assay: as above
Conditions: c terminus: a fixed tail appended

Protein stability index of substitutions, site by site:
V1: E 2.47 | R 2.71 | S 3.54 | I 3.61 | A 1.96 | Q 4.24 | H 1.6 | N 1.36 | P 1.85 | F 2.81
